Test results published in patent publication US20210147485A1, “PEPTIDE LIGANDS FOR BINDING TO INTEGRIN” (BicycleTx Limited, priority 2018, published 2021).
Starred links: 1 amine or outer side, 2 acyl side, 3 side chain; linkers in the order of their positions; H or OH if unused. Positions of bridges follow the written chain, without caps; N, C: chain ends. Non-standard residues stand in square brackets, D forms with d. No end group written: not given here. TBMB = c1c(C[*:1])cc(C[*:3])cc1C[*:2]; Dap(Me) = CNC[C@H](N)C(=O)O

Columns and labels:
integrin αvβ3 [1] = target: integrin αvβ3 (Homo sapiens, UniProt P05106+P06756); test: Integrin αvβ3 competition binding assay (competition fluorescence polarisation, FITC-LC-GRGDSP ligand); settings: relative to thioether linked Reference Example 1
Experimental: The peptide ligands of the examples and the reference examples were tested in the above mentioned assay.
The following reference peptide ligands having a TBMB or TATA scaffold with three thioether linkages to cysteine residues of the specified peptide sequences were prepared and evaluated for affinity to integrin αvβ3 as described in detail in our earlier application GB1800598.3 filed 15 Jan. 2018.

integrin αvβ3 [2] = test: competition fluorescence polarisation, 5 nM FITC-LC-GRGDSP tracer; n2
integrin αvβ3 [3] = test: competition fluorescence polarisation, 5 nM FITC-LC-GRGDSP tracer; n1

Ki (integrin αvβ3 [2]) [µM]	Ki (integrin αvβ3 [3]) [µM]	Molecule	binding affinity to integrin αvβ3 (in words) (integrin αvβ3 [1])
		[Ac]A[Dap(Me)]ILRPN[Dap(Me)]DLDGR[Dap(Me)]A [BCY00009181]	larger drop in the measured affinity
> 18.6	> 18.6	Ac-A[Dap(Me)]ILRPN[Dap(Me)]DLDGR[Dap(Me)]A (linker 2-8-14 via TBMB) [BCY00009181]	
